molecular target: T1, full-length human APLNR (amino acids 1-380 of accession number NP-005152.1) (human, UniProt P35414 1-380); test: cell-based or functional assay
T1 sequence (looked up): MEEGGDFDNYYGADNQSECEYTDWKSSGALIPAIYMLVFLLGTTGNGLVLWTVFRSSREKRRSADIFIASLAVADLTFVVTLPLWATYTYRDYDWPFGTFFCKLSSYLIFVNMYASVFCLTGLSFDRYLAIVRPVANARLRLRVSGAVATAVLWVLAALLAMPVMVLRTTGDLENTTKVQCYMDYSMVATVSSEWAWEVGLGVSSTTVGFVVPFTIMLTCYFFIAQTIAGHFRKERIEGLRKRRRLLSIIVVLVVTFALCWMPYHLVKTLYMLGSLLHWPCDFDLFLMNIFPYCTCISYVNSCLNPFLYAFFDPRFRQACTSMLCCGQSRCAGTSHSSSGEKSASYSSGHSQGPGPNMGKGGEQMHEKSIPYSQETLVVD

**Q.** With PRLSHKGPMPF [Apelin-11] as the binder, how does the “EC50 (M), CRE assay (cAMP reporter) in HEK293/CRE-luc/hAPLNR cells” value (from here on “EC50 (M) … in HEK293/CRE-luc/hAPLNR cells”) read?
**A.** 4.38e-10 M

**Q.** Which “EC50 (M) … in HEK293/CRE-luc/hAPLNR cells” value does the source give for QRPRLSHKGPMPFGGGGG [Apelin-13 + 5G] here?
**A.** 1.47e-10 M

**Q.** With RPRLSHKGPMP [Apelin66-76] as the binder, how does the “EC50 (M) … in HEK293/CRE-luc/hAPLNR cells” value read?
**A.** 5.19e-12 M

**Q.** For PRLSHKGPMP [Apelin67-76], which “EC50 (M) … in HEK293/CRE-luc/hAPLNR cells” value is on record?
**A.** 1.14e-13 M

**Q.** With RPRLSHKGPM [Apelin66-75] as the binder, how does the “EC50 (M) … in HEK293/CRE-luc/hAPLNR cells” value read?
**A.** 2.17e-12 M

**Q.** With PRLSHKGPM [Apelin67-75] as the binder, how does the “EC50 (M) … in HEK293/CRE-luc/hAPLNR cells” value read?
**A.** 3.74e-07 M

— patent US20140275489A1 (Regeneron, published 2014)
